Laboratory results as given in patent publication US20190241674A1 (MAB DISCOVERY, published 2019).

How the values were obtained:
[1] = molecular target: T1, Recombinant Human ErbB2/HER2 Fc Chimera; R&D Systems; Cat. No. 1129-ER (human, UniProt P04626 23-652); assay: HER2 biochemical ELISA, coated HER2 Fc chimera (Example 3)
T1 construct: Bought reagent; also called human Her2; HER2-HIS-tag; not shown: not described

FcγRIIIa receptor, V158 = FcγRIIIa receptor, V158 (human, UniProt P08637 17-254); assay: cell-based or functional assay
HER2 on SK-BR-3 cells = molecular target: T2, HER2 on SK-BR-3 cells (human, UniProt P04626 23-1255); assay: cell binding to SK-BR-3, high content imaging (Example 4)
T2 construct: whole, on cells

Sequence of FcγRIIIa receptor, V158 (P08637 17-254 F176V): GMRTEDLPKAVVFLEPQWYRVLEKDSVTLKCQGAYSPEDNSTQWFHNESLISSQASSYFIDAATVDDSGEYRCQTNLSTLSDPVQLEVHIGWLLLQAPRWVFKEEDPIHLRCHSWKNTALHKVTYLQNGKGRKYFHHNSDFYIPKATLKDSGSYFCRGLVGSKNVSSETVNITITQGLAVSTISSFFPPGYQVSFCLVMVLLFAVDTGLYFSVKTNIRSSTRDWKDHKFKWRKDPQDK

EC50 [1]: 0.0052 µg/mL | EC50 of FcR signaling (FcγRIIIa receptor, V158): 0.052 µg/mL | stimulation of FcR signaling (FcγRIIIa receptor, V158): 132 fold | EC50 (HER2 on SK-BR-3 cells): 0.078 µg/mL
B1: MABD B100 (antibody)
heavy: not shown
light: DIVMTQTPASVSEPVGGTVTIKCQASQGISTALAWYQQKPGQRPKLLIYSASTLASGVSSRFKGSGSGTQFTLTISDLECADAATYYCQCTAAGSVSVGAFGGGTEVVVNRTVAAPSVFIFPPSDEQLKSGTASVVCLLNNFYPREAKVQWKVDNALQSGNSQESVTEQDSKDSTYSLSSTLTLSKADYEKHKVYACEVTHQGLSSPVTKSFNRGEC
